Source: the supplement of paper PMC9112550, “Optimization of the antimicrobial peptide Bac7 by deep mutational scanning” (BMC Biology, 2022)

Tested on: Escherichia coli TOP10
Assay: shrunken log2 fold change of peptide-encoding DNA abundance (4.5 h post-induction vs induction); higher = less antimicrobial activity (less host growth inhibition)
Conditions: time post-induction: 4.5 h; library: site-saturation at positions 5, 18, 19, 20
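Note: peptides expressed intracellularly from a pBAD plasmid library in pooled LB shake-flask culture, induced with 0.3% L-arabinose, DNA abundance read by NGS, three biological replicates, DESeq2 with apeglm shrinkage.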

RRIRTRPPRLPRPRPRPHWQPRP
shrunken log2 fold change: -0.0496

RRIRTRPPRLPRPRPRPHYLPRP
shrunken log2 fold change: -0.194

RRIRTRPPRLPRPRPRPIAYPRP
shrunken log2 fold change: 0.0173

RRIRTRPPRLPRPRPRPICFPRP
shrunken log2 fold change: -0.583

RRIRTRPPRLPRPRPRPICYPRP
shrunken log2 fold change: -0.387

RRIRTRPPRLPRPRPRPIFCPRP
shrunken log2 fold change: -0.327

RRIRTRPPRLPRPRPRPIFPPRP
shrunken log2 fold change: 0.166

RRIRTRPPRLPRPRPRPIFTPRP
shrunken log2 fold change: -0.0602

RRIRTRPPRLPRPRPRPIGWPRP
shrunken log2 fold change: 0.6

RRIRTRPPRLPRPRPRPIHTPRP
shrunken log2 fold change: -0.371

RRIRTRPPRLPRPRPRPIIQPRP
shrunken log2 fold change: -0.487

RRIRTRPPRLPRPRPRPIKEPRP
shrunken log2 fold change: -0.253

RRIRTRPPRLPRPRPRPIKHPRP
shrunken log2 fold change: -0.454

RRIRTRPPRLPRPRPRPIKLPRP
shrunken log2 fold change: -0.412

RRIRTRPPRLPRPRPRPIMIPRP
shrunken log2 fold change: -0.163

RRIRTRPPRLPRPRPRPIMNPRP
shrunken log2 fold change: 0.0436

RRIRTRPPRLPRPRPRPIPLPRP
shrunken log2 fold change: -0.683

RRIRTRPPRLPRPRPRPIQKPRP
shrunken log2 fold change: -0.00925

RRIRTRPPRLPRPRPRPIQSPRP
shrunken log2 fold change: -0.0351

RRIRTRPPRLPRPRPRPIRDPRP
shrunken log2 fold change: -0.288

RRIRTRPPRLPRPRPRPIRLPRP
shrunken log2 fold change: 0.0213

RRIRTRPPRLPRPRPRPIRSPRP
shrunken log2 fold change: 0.0601

RRIRTRPPRLPRPRPRPIVTPRP
shrunken log2 fold change: 1.13

RRIRTRPPRLPRPRPRPIVVPRP
shrunken log2 fold change: -9.82e-05

RRIRTRPPRLPRPRPRPIVYPRP
shrunken log2 fold change: -0.85

RRIRTRPPRLPRPRPRPIWNPRP
shrunken log2 fold change: -0.169

RRIRTRPPRLPRPRPRPIYKPRP
shrunken log2 fold change: -1.02

RRIRTRPPRLPRPRPRPIYTPRP
shrunken log2 fold change: -0.46

RRIRTRPPRLPRPRPRPKCDPRP
shrunken log2 fold change: 0.118

RRIRTRPPRLPRPRPRPKDEPRP
shrunken log2 fold change: -0.0319

RRIRTRPPRLPRPRPRPKEEPRP
shrunken log2 fold change: 0.00448

RRIRTRPPRLPRPRPRPKEIPRP
shrunken log2 fold change: -1.03

RRIRTRPPRLPRPRPRPKETPRP
shrunken log2 fold change: 0.137

RRIRTRPPRLPRPRPRPKGEPRP
shrunken log2 fold change: 0.0539

RRIRTRPPRLPRPRPRPKGWPRP
shrunken log2 fold change: 0.414

RRIRTRPPRLPRPRPRPKIMPRP
shrunken log2 fold change: -0.519

RRIRTRPPRLPRPRPRPKKKPRP
shrunken log2 fold change: -0.125

RRIRTRPPRLPRPRPRPKKNPRP
shrunken log2 fold change: 0.409

RRIRTRPPRLPRPRPRPKLAPRP
shrunken log2 fold change: 0.163

RRIRTRPPRLPRPRPRPKLQPRP
shrunken log2 fold change: -0.114

RRIRTRPPRLPRPRPRPKMNPRP
shrunken log2 fold change: -0.558

RRIRTRPPRLPRPRPRPKNCPRP
shrunken log2 fold change: -0.0901

RRIRTRPPRLPRPRPRPKNKPRP
shrunken log2 fold change: -0.525

RRIRTRPPRLPRPRPRPKPGPRP
shrunken log2 fold change: 0.299

RRIRTRPPRLPRPRPRPKPRPRP
shrunken log2 fold change: 0.692

RRIRTRPPRLPRPRPRPKQCPRP
shrunken log2 fold change: -0.00809

RRIRTRPPRLPRPRPRPKQNPRP
shrunken log2 fold change: 0.638

RRIRTRPPRLPRPRPRPKQQPRP
shrunken log2 fold change: -0.0149

RRIRTRPPRLPRPRPRPKRFPRP
shrunken log2 fold change: -0.00233

RRIRTRPPRLPRPRPRPKRKPRP
shrunken log2 fold change: 0.0722

RRIRTRPPRLPRPRPRPKSYPRP
shrunken log2 fold change: -0.364

RRIRTRPPRLPRPRPRPKTCPRP
shrunken log2 fold change: 0.012

RRIRTRPPRLPRPRPRPKTHPRP
shrunken log2 fold change: 0.29

RRIRTRPPRLPRPRPRPKVEPRP
shrunken log2 fold change: 0.12

RRIRTRPPRLPRPRPRPKWCPRP
shrunken log2 fold change: 0.00669

RRIRTRPPRLPRPRPRPKWDPRP
shrunken log2 fold change: -0.0626

RRIRTRPPRLPRPRPRPKWQPRP
shrunken log2 fold change: 0.0171

RRIRTRPPRLPRPRPRPKWWPRP
shrunken log2 fold change: 0.683

RRIRTRPPRLPRPRPRPKYIPRP
shrunken log2 fold change: -0.748

RRIRTRPPRLPRPRPRPKYNPRP
shrunken log2 fold change: -0.81

RRIRTRPPRLPRPRPRPLCEPRP
shrunken log2 fold change: -0.0895

RRIRTRPPRLPRPRPRPLCSPRP
shrunken log2 fold change: -0.27

RRIRTRPPRLPRPRPRPLDQPRP
shrunken log2 fold change: 0.365

RRIRTRPPRLPRPRPRPLDYPRP
shrunken log2 fold change: -2.42

RRIRTRPPRLPRPRPRPLELPRP
shrunken log2 fold change: -0.176

RRIRTRPPRLPRPRPRPLFPPRP
shrunken log2 fold change: -0.415

RRIRTRPPRLPRPRPRPLFYPRP
shrunken log2 fold change: -0.467

RRIRTRPPRLPRPRPRPLHPPRP
shrunken log2 fold change: 0.375

RRIRTRPPRLPRPRPRPLIDPRP
shrunken log2 fold change: -0.0458

RRIRTRPPRLPRPRPRPLIFPRP
shrunken log2 fold change: -0.446

RRIRTRPPRLPRPRPRPLLRPRP
shrunken log2 fold change: 0.0975

RRIRTRPPRLPRPRPRPLLSPRP
shrunken log2 fold change: 0.0198

RRIRTRPPRLPRPRPRPLMHPRP
shrunken log2 fold change: -0.454

RRIRTRPPRLPRPRPRPLNKPRP
shrunken log2 fold change: -0.225

RRIRTRPPRLPRPRPRPLRMPRP
shrunken log2 fold change: -0.0962

RRIRTRPPRLPRPRPRPLSPPRP
shrunken log2 fold change: 0.0169

RRIRTRPPRLPRPRPRPLTAPRP
shrunken log2 fold change: -0.32

RRIRTRPPRLPRPRPRPLTDPRP
shrunken log2 fold change: -0.198

RRIRTRPPRLPRPRPRPLTYPRP
shrunken log2 fold change: 0.959

RRIRTRPPRLPRPRPRPLWGPRP
shrunken log2 fold change: -0.0731

RRIRTRPPRLPRPRPRPLWKPRP
shrunken log2 fold change: -0.178

RRIRTRPPRLPRPRPRPLYIPRP
shrunken log2 fold change: -0.998

RRIRTRPPRLPRPRPRPLYSPRP
shrunken log2 fold change: -0.575

RRIRTRPPRLPRPRPRPMAHPRP
shrunken log2 fold change: -0.161

RRIRTRPPRLPRPRPRPMASPRP
shrunken log2 fold change: 0.0589

RRIRTRPPRLPRPRPRPMENPRP
shrunken log2 fold change: -0.011

RRIRTRPPRLPRPRPRPMETPRP
shrunken log2 fold change: 0.0774

RRIRTRPPRLPRPRPRPMFDPRP
shrunken log2 fold change: -0.0585

RRIRTRPPRLPRPRPRPMKAPRP
shrunken log2 fold change: 0.0679

RRIRTRPPRLPRPRPRPMLSPRP
shrunken log2 fold change: -0.41

RRIRTRPPRLPRPRPRPMMFPRP
shrunken log2 fold change: -0.0404

RRIRTRPPRLPRPRPRPMMLPRP
shrunken log2 fold change: 0.00466

RRIRTRPPRLPRPRPRPMMQPRP
shrunken log2 fold change: -0.0796

RRIRTRPPRLPRPRPRPMMSPRP
shrunken log2 fold change: -0.282

RRIRTRPPRLPRPRPRPMNKPRP
shrunken log2 fold change: -0.373

RRIRTRPPRLPRPRPRPMNVPRP
shrunken log2 fold change: 0.0707

RRIRTRPPRLPRPRPRPMPEPRP
shrunken log2 fold change: 0.0253

RRIRTRPPRLPRPRPRPMQAPRP
shrunken log2 fold change: -0.0247

RRIRTRPPRLPRPRPRPMQGPRP
shrunken log2 fold change: 0.321

RRIRTRPPRLPRPRPRPMQIPRP
shrunken log2 fold change: 0.08

RRIRTRPPRLPRPRPRPMQKPRP
shrunken log2 fold change: -0.00906

RRIRTRPPRLPRPRPRPMQTPRP
shrunken log2 fold change: 0.0276

RRIRTRPPRLPRPRPRPMTFPRP
shrunken log2 fold change: 0.0754

RRIRTRPPRLPRPRPRPMTIPRP
shrunken log2 fold change: -0.137

RRIRTRPPRLPRPRPRPMTKPRP
shrunken log2 fold change: -0.0084

RRIRTRPPRLPRPRPRPMTNPRP
shrunken log2 fold change: -0.138

RRIRTRPPRLPRPRPRPMTQPRP
shrunken log2 fold change: 0.13

RRIRTRPPRLPRPRPRPMTSPRP
shrunken log2 fold change: -0.168

RRIRTRPPRLPRPRPRPMWAPRP
shrunken log2 fold change: 0.0473

RRIRTRPPRLPRPRPRPMWNPRP
shrunken log2 fold change: -0.418

RRIRTRPPRLPRPRPRPMYRPRP
shrunken log2 fold change: -0.0591

RRIRTRPPRLPRPRPRPNARPRP
shrunken log2 fold change: -0.0251

RRIRTRPPRLPRPRPRPNCLPRP
shrunken log2 fold change: -0.0709

RRIRTRPPRLPRPRPRPNCVPRP
shrunken log2 fold change: 0.00481

RRIRTRPPRLPRPRPRPNDFPRP
shrunken log2 fold change: -0.205

RRIRTRPPRLPRPRPRPNHMPRP
shrunken log2 fold change: -0.792

RRIRTRPPRLPRPRPRPNIFPRP
shrunken log2 fold change: -0.174

RRIRTRPPRLPRPRPRPNKCPRP
shrunken log2 fold change: -0.314

RRIRTRPPRLPRPRPRPNKHPRP
shrunken log2 fold change: -0.448

RRIRTRPPRLPRPRPRPNMQPRP
shrunken log2 fold change: -0.223

RRIRTRPPRLPRPRPRPNMYPRP
shrunken log2 fold change: -0.637

RRIRTRPPRLPRPRPRPNPTPRP
shrunken log2 fold change: 0.207

RRIRTRPPRLPRPRPRPNREPRP
shrunken log2 fold change: 0.115

RRIRTRPPRLPRPRPRPNRPPRP
shrunken log2 fold change: 0.00512

RRIRTRPPRLPRPRPRPNRQPRP
shrunken log2 fold change: 0.0749

RRIRTRPPRLPRPRPRPNSAPRP
shrunken log2 fold change: -0.181

RRIRTRPPRLPRPRPRPNSCPRP
shrunken log2 fold change: 0.0686

RRIRTRPPRLPRPRPRPNSLPRP
shrunken log2 fold change: 0.0607

RRIRTRPPRLPRPRPRPNTDPRP
shrunken log2 fold change: -0.615

RRIRTRPPRLPRPRPRPNTMPRP
shrunken log2 fold change: -0.675

RRIRTRPPRLPRPRPRPNVLPRP
shrunken log2 fold change: -0.0117

RRIRTRPPRLPRPRPRPNVQPRP
shrunken log2 fold change: -0.429

RRIRTRPPRLPRPRPRPNWAPRP
shrunken log2 fold change: -0.243

RRIRTRPPRLPRPRPRPPCCPRP
shrunken log2 fold change: 0.00432

RRIRTRPPRLPRPRPRPPCSPRP
shrunken log2 fold change: -0.00786

RRIRTRPPRLPRPRPRPPDMPRP
shrunken log2 fold change: -0.142

RRIRTRPPRLPRPRPRPPDRPRP
shrunken log2 fold change: 0.257

RRIRTRPPRLPRPRPRPPDTPRP
shrunken log2 fold change: 0.0652

RRIRTRPPRLPRPRPRPPEVPRP
shrunken log2 fold change: 0.0579

RRIRTRPPRLPRPRPRPPEWPRP
shrunken log2 fold change: 0.442

RRIRTRPPRLPRPRPRPPFDPRP
shrunken log2 fold change: 0.104

RRIRTRPPRLPRPRPRPPFHPRP
shrunken log2 fold change: 0.535

RRIRTRPPRLPRPRPRPPFTPRP
shrunken log2 fold change: 0.0073

RRIRTRPPRLPRPRPRPPGCPRP
shrunken log2 fold change: 0.528

RRIRTRPPRLPRPRPRPPGPPRP
shrunken log2 fold change: 0.53

RRIRTRPPRLPRPRPRPPGVPRP
shrunken log2 fold change: 0.182

RRIRTRPPRLPRPRPRPPHKPRP
shrunken log2 fold change: 0.242

RRIRTRPPRLPRPRPRPPHQPRP
shrunken log2 fold change: 0.237

RRIRTRPPRLPRPRPRPPLHPRP
shrunken log2 fold change: 0.0532

RRIRTRPPRLPRPRPRPPLPPRP
shrunken log2 fold change: 0.33
